Biological target: BRCA1 protein (mouse) (mouse) (UniProt P48754)
Assay: cell-based or functional assay

UniProt P48754, sequence (P48754 whole entry): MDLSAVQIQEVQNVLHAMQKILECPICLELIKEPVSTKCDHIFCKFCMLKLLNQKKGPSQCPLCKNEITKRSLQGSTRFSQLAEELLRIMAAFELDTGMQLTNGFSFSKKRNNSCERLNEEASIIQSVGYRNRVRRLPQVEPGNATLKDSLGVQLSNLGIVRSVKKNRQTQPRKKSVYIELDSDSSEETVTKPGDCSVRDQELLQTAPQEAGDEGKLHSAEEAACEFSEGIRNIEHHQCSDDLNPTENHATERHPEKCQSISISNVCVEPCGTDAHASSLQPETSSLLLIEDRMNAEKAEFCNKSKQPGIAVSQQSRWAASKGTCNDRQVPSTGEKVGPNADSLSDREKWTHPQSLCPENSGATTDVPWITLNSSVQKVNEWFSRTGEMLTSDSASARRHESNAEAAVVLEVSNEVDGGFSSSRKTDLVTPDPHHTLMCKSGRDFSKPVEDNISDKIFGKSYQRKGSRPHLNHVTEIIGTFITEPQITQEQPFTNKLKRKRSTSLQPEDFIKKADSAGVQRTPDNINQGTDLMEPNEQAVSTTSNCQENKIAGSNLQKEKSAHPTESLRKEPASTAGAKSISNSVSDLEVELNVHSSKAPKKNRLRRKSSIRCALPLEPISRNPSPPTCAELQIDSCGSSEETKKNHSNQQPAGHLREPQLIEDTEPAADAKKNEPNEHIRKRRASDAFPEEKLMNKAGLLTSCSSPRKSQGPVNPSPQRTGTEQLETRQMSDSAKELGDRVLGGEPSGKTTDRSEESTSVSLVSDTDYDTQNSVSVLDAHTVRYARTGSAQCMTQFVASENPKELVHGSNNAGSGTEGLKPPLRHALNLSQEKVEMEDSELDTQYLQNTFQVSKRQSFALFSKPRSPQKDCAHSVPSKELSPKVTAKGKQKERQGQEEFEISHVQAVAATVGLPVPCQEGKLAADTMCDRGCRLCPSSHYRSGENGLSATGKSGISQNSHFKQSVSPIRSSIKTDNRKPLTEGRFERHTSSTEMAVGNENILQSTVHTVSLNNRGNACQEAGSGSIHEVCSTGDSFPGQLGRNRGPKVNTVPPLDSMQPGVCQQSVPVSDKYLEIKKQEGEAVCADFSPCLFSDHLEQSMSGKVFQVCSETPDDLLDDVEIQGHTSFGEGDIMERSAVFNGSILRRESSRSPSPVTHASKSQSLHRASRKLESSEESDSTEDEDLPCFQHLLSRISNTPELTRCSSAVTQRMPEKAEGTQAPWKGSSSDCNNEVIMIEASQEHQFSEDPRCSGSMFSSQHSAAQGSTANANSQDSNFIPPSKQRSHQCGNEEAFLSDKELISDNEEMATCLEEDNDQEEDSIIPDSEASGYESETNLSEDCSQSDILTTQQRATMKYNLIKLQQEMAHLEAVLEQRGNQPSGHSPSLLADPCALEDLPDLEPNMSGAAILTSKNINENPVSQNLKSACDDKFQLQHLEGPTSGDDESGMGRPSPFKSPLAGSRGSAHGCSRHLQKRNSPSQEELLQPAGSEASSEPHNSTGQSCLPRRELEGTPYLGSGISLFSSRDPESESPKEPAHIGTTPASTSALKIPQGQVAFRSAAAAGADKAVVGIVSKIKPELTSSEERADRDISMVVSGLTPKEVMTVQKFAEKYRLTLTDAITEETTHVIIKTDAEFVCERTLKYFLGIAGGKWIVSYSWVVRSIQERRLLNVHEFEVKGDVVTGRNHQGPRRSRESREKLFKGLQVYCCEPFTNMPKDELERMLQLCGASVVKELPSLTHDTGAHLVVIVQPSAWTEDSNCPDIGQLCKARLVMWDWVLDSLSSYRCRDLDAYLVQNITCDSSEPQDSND

FANCD2 protein (mouse) (from UniProt Q80V62 1-1450)
co-localization of anti-FANCD2 foci with anti-BRCA1 staining (20 pachytene nuclei): 65%
